Assay: label from the status in PepcDB records
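Further: failed if final PepcDB status was selected cloned or expressed and not failed if soluble or beyond.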

Sequence	protein production
MFQIGEHNMILIYKLTLTKLTEDELKKDFATIPSWATHLDLSNNRLGETSNEELIRVFAKIPGWISHIKLRFNNLGQKNGKDLAKAFAKIPISVTTLDLGSNQLGKKSGEELANAFAGIPTSVTRLILSQNELYKRTGGELATAFAKIPSSVTHLVLVNNGLGEKNGKELATAFANIPSSVTTLDLALNDLSKIKSTELAVIFTKIPTSVTQLDLSHNNLNKKSGKNLAKIFANIPTSVTNLNLSCNELGKKSGKGLAAAFAKIPTSVTDLNIEDNDLDNRTGKELAMAFAHIPAFVNTLRLGDNNLGNKSGEELAEIFAKIPLSVTSLDLRYNELGKRNGKELAIAFAKIPSSVTNLNLKFNHLGKITGEELAMAFANIPTNVDSLVLANNELGAKSGEELAKIFSKIPASITSLNMGNDWFAVIEKLSQQKMVLSTITHVVIDYSSAQEHSAKLKLLATVFPNLNKVTFMDIHGNNALAGQNPIEEAKWLKLCGIKNSVPSLLSQALFFVAKNKEHRSIQDYPSLLPKELTDSISSLLKC	failed
MFQLRKKMTRKQLALLSAGVLTCVVGGSYLIMNHQQQEIVSSVNKVKALTIKEAMEQGKDISLTLAGEVTANNSSKVKIDSSKGEVKEVFVKKGDVVKVGQPLFSYETSQRLTAQSSEFDVQTKANQLQVAKTNAALKWETYNRKVNEINTLKSRYNTAPDESLLEQIRSAEDSVSQALSDAKTADSDVKTAQIELDKANATATTEKGKLEYDTVKSDTAGTIVSLNTDLPNQSKSKKENETFMEIIDKSKMLVKGNISEFDRDKLKIGQKVEVIDRKDNSKKWTGKVTQVGNLKAEEKGQGQGQGGNDQQDNPNQAKFPYVIELDQSDKQPLIGSHTYVNVLNNVPEAGKIVLKETFTMAENGKTYVWKVDKNKVKKQEIKTKPFSKGYVEVTSGLTMQDKIAQPLPGMKDGMEVGSIVKP	failed
MFRDEDETTPPRAREVERLKKRLYRLKYLAHKYKRAEVVQNALLELSHIATQVSSLEEFYLGVHHHLKQLISADNFFIATLDVNSGAISVPFFADEKDAHPSQLYPEQSLSTLLQQGLTGYVFRTGQTLLCDESKVDELVNAEEIVNLGSPCHLWLGVPIKHEDIVTAVLVVQTYDTNVSYGDIEVELMTFICHHITGVMERLKHQEQLEQAIQQ	failed
MFRGVAPPPERSSTPLPPTMTTTPEPGAALLLLIVSQLPGIGPSRARALLNRFGATPALLEADYDALRQIPGIGETTARETAERLANPAWRDKAREKGENQLARAERLEASVITILDPAYPPLLKEIYDPPLLLFARGNPEALCVPSLAVVGTRKATAYGKQATEFICREMVNNGYAILSGLAYGIDMMAHRAAVESNGVTIAVLGCGIDRIYTDPAGRLWPRILERGAIVSEEWIGIKPEPGNFPRRNRLIAGLAQGTLIVESDIKGGSMITASYALEQNREVFAIPGSIFSGTSRGTNYLIQQNHAKPVFSAEDILAELNPAQHPALKTHPEASEPFDLNIEESCIVEALQSGAMHIDLIAEKTGLKIDALLVHLFELELKRIIEQEPGQIFRKRTP	failed
MFRSKRYQMVAYAITGSALWGLSGTVSSILFSRYGMPFSTLVTIRMVFSGLILLAAGRGFVGKKDLPMFLVFAIPGLFGVQILYLATISFSNAPVATLLQFLFFPMVAVYDYITIRSLTVSSLILALIFSVAGIYELTTGFPLGGTALRISLTALILGLATAATAALYTVTSARIVKEYGGLRTVASGMMVGGLVSLPLGSFSGVPYFHGLGQADVIPVLALTIFVIVFGTSMAFYLYINSMRYISPVEAAVSGTFEPVAAAMSSYLLLGIKLSAMQYLGGALIVISILVIVISKNRRG	failed
MFRSLNSYLIDFTGLVVISVLICLVSAGGSLASGLPFQIPASVLQLNTIFISILIEALPFVLIGVLIAGFIQIFVTEEHIRSLFPKNRFSGVIVSCLLGACFPACECGIVPIVRRLVSKGVPIYAGVGFLLTGPLINPIVVLSTYMAFGNDLRMAVLRVAVGFAAAVIIAFAISMMFRSSQLKTESRQTAAHCAHSGRRSPFSEKLFDMLKHAVDEFFDMGRFLIIGALVAALVQTYLPLKSLFVFGGGMLDSALVMMGLAYFLSLCSEADAFIGASFTNLFPSSSILAFLVYGPMLDLKNTVMMLHAFKPKFVICLSVLITVVVFVCIKVVSLL	failed
MFRSSRRQAAFDFDLLMPETPARRTARAANPDRDVVDAEFVTIKENRVRQPGNDNRGAARRQMVKPSVTIGALGLAFIGWLDRRLSRLSADAYSALVAGLAIFVFVCSGGLSVVVPETSAVAASVNPLAISHVTITPQEAGGMDILLINGIVENNGGNLEEVPALRADLFAAKGQLVASMVIEPPVKEMQPGFSHGFSAKLRHPGGKTPEIKLSFVEAGASAR	failed
MFRVTGTLSAASSPAVAAASFSAALRLSITPTLAIASPPHLRWFSKFSRQFLGGRISSLRPRIPSPCPIRLSGFPALKMRASFSSGSSGSSASREILVQHLLVKNNDVELFAELQKKFLDGEEMSDLAAEYSICPSKKDGGILGWVKLGQMVPEFEEAAFKAELNQVVRCRTQFGLHLLQVLSEREPVKDIQVEELHSKMQDPVFMDEAQLIDVREPNEIEIASLPGFKVFPLRQFGTWAPDITSKLNPEKDTFVLCKVGGRSMQVANWLQSQGFKSVYNITGGIQAYSLKVDPSIPTY	failed
MFRWERSIPLRGSAAALCNNLSVLQLPARNLTYFGVVHGPSAQLLSAAPEGVPLAQRQLHAKEGAGVSPPLITQVHWCVLPFRVLLVLTSHRGIQMYESNGYTMVYWHALDSGDASPVQAVFARGIAASGHFICVGTWSGRVLVFDIPAKGPNIVLSEELAGHQMPITDIATEPAQGQDCVADMVTADDSGLLCVWRSGPEFTLLTRIPGFGVPCPSVQLWQGIIAAGYGNGQVHLYEATTGNLHVQINAHARAICALDLASEVGKLLSAGEDTFVHIWKLSRNPESGYIEVEHCHGECVADTQLCGARFCDSSGNSFAVTGYDLAEIRRFSSV	failed
MFSFNMFDHPIPRVFQNRFSTQYRCFSVSMLAGPNDRSDVEKGGKIIMPPSALDQLSRLNITYPMLFKLTNKNSDRMTHCGVLEFVADEGICYLPHWMMQNLLLEEGGLVQVESVNLQVATYSKFQPQSPDFLDITNPKAVLENALRNFACLTTGDVIAINYNEKIYELRVMETKPDKAVSIIECDMNVDFDAPLGYKEPERQVQHEESTEGEADHSGYAGELGFRAFSGSGNRLDGKKKGVEPSPSPIKPGDIKRGIPNYEFKLGKITFIRNSRPLVKKVEEDEAGGRFVAFSGEGQSLRKKGRKP	not failed
MFSLNTLLNPPDNLSVGEIILISLILGMLHGVTPDEHTWPITFSYAIGKYSTKGGMKAGFLFSLGFTIQRAFLTTIGFLGLAAIYNQYNLDGPVYAVVGIVMAIAGSYILKGKYIHLPIDALFKSKQHTEEAGKVKDIPIKMTIVHGLVAGFGFGAYATIITFVLAPQLPSVVYAPLPGLFFGLGTMVMQIIFGMIFGNILRLKKMTEEQLSFIARKTAGRVLYYGGLVFLIVGLLIIVLPAIDNFAISTGNPIPNLDAINIGFLLVISVVGVIGISSILYGFREAKRLAKHI	failed
MFSPDSPISEFVSISTHVAPSVVKTTAGDYLLIWHLGGLPFVGRDEFELEQRHNTFNRLLQTLRAPDFANVAFWVHDVRRRRRIGAGGRFKQAFNQTLSDEYYTALSSQKIMQNELYFSMIYRPVVTGRRLVEKSANPDKIRAEEEQAVAKVVELATNVEAVLKDYAPYRLGMYEAKNGLVFSETLEFLGYLLNRIDEPVPVLPAPVPAYLPVSKHMFANKTGDFVIRTPDGINHFGAILNIKEYADGTYPGILNGLKYLDSEYVMTHSFSPVGRHDALKVLERTKGMMVSSGDKSSTQIRDLDVAMDDVASGNFVLGEYHFTLAVYADSQEKLARQIATTRAELSNAGFVSAKEDLAIASSFYSQLPGNWRFRTRIANLSSLNFLGLSPLHNFAQGKQHNNPWGDCVTTLQTTNGQPYYFNFHATHPSENSLGEKAIGNTMVIGKSGTGKTALINFLLSQVQKFDPIPTIFFFDKDRGAEIFVRACGGNYLALENGSPTGFNPFQCERNEANTQFLAELIKVLGGKAEYSAREEEDIYRAVEGMLDTPMHLRSMSNFRKSLPNMGDDGLYARLRRWTAGNSLGWVFDNPVDTIDLTRASIIGFDYTDVIDNAEVRVPVINYLLHRLEALIDGRPLIYVMDEFWKILDGKGGLKEFAKNKQKTIRKQNGLGIFATQSPEDALASDIAAALIEQTATMILLPNPNASRDDYMEGLKLTDAEYQVVVSLDERSRCFLVKQGHASAVCQLNLRGMDDALSVISSSTDNIEIMHQILAGKAGKLGVTVDQLTPEQWLEHHHHHH	failed
MFTALLFTLGIAAATSFNASAIDNHNNKNKLPDIGISGYSVLSTDKELQIGKAMMRQLRASQPLIQDPVLIEYINHLGNSLVKNAQGVNYAFEFFLINNNELNAFAFFGGHVGIHSGLITTADTESELASVIAHEISHVTQRHLARRLESQSQTQGLTMAAMLSSVLITLVNPTVGIAALSASMAVTQQASINYTRGNEKEADRVGIALLASSNYDPQGAASFFSKMSTKYRYASKPPAMLLTHPLPESRIADARQRALNYPARPLPPSLGFELTKARLKSRYQGEAKSNISFFKLQLEKKRYAIKAAAQYGLALSYFENKQTSEALQLLEMLEKNDKDNLFYVDALTDVYIANNQANKAIKMLERLNLFMPNNQVVSLNYANALLSVKEYDLAAQILQDFLLVNPGNFIAYDILTTLYRTQEKTGLMHMSKAEVYALLGAYPKAVDELQTSYAFLDEQPLMQKRVKARILQLQEQENRLKRL	failed
MFTFGFTNPEGTPDFSTPGLICIAILYIVGIYINFVFTIRRLHDRNNTGWLSLLMLVPVVNIGLAIYLFCAKGTEGPNDYGPKRPTPSWERVLGWIYIALIPLALIFGVIAVIMAPTYEGYVEKSESIVIGSPSQSE	failed
MFTFLMTVRTSRRVAFHSGKLPVVIGIVSFFAPLFSLSFLNLFTDNIDPHYMSLDKALAERTVIVITQSQILLPSTTYILLELKIINSELGRLALSASAINDMLGIFAMIVATTQATYIHVSHAIAYRDLVAVIIFFLIVFFVFKPMVQWIIDRTPEDKPVEDIYIHAVILTAFASAAYFVFFNMKYVLGPLIIGIIIPEGPPLGSALEAKFERLTMNVFLPISITFSAMRCDGLRILSQFTDIYFNIFLTLLILVIKLVACLTLCLYYKLPRSESLAVSLILSYKSFVEFVLYEAVLEEKFISQATYAFLILYSLLSAGIVPMVVRSMYDPKRKYVNYQKRDILHLEANSGLRILTCLHKPENVSETIAFLQLFSSPIHDFPIAVTVLHLVKLVGQINPIIVSHDKKLKRLHKNSYIHTANLAFRQFMQESLESVTVTTFTAFSHENLMHEDICTLALDRTTSMIVVPSGRKWTVDGMFESDDLAARQLNQSLLDRAPCSIGILVDRGQFSRKSYVTSKNRYNIDVGVLFIGGKDDREALSLVKRMKYNPRVRVTVIRLIFDHEIESEWDYILDNEGLKDLKSTESNEDILYTERIVTSVVEVVKAVQLLAEEYDLMVVGRDHDMTSQDLSGLTEWVELPELGVIGDLLAARDLNSKVSVLVVQQQQQQT	failed
MFTQRKKWLSGVAAGLLMAASVSASAEEKILHIYNWSDYIAPDTLANFQKETGIKVVYDVFDSNEVLEGKLMAGSTGFDLVVPSASFLERQLSAGVFKPLDKSKLPNEKNLDPELLALVSKHDPDNKYAIPYLWATTGIGYNVEKVKAVLGEDAPVNSWDLVLKPENLEKLKSCGVSFLDAPSEIFATVLNYLGKDPNSTLTADYTGSATDLLLKLRPNIRYFHSSQYINDLANGDICVAVGWAGDIMQASNRAKEAKNGVNVAYSIPKEGALAFFDVFAMPTDAKNQDEAYQFLNYLMRPDVIANISNHVFYANANQAATPLVNAEVRDNPGIYPPADVRAKMFTLKVQDPKIDRVITRAWTKVKSGK	failed
MFTTVITPRVSETDGVGHINNTTVPVWFEAGRHEIFKLFTPDLSFKRWRMVIIRMEVDYVNQMYYGQDVTVYTGIERIGNTSLTIYEEIHQNGVVCAKGRSVYVNFNFDTGRPEPIPDDIRVKLREHVWQPGE	not failed

Reference: a protein production outcome set (Wang et al. 2014)
